B1: JNK1-APF: inhibitory mutant of JNK1 (protein, UniProt P45983 1-427, looked up, variant T183A Y185F)
Mitogen-activated protein …: MSRSKRDNNFYSVEIGDSTFTVLKRYQNLKPIGSGAQGIVCAAYDAILERNVAIKKLSRPFQNQTHAKRAYRELVLMKCVNHKNIIGLLNVFTPQKSLEEFQDVYIVMELMDANLCQVIQMELDHERMSYLLYQMLCGIKHLHSAGIIHRDLKPSNIVVKSDCTLKILDFGLARTAGTSFMMAPFVVTRYYRAPEVILGMGYKENVDLWSVGCIMGEMVCHKILFPGRDYIDQWNKVIEQLGTPCPEFMKKLQPTVRTYVENRPKYAGYSFEKLFPDVLFPADSEHNKLKASQARDLLSKMLVIDASKRISVDEALQHPYINVWYDPSEAEAPPPKIPDKQLDEREHTIEEWKELIYKEVMDLEERTKNGVIRGQPSPLGAAVINGSQHPSSSSSVNDVSSMSTDPTLASDTDSSLEAAAGPLGCCR
B2: DEVE→A: MEKK1 mutant with DEVE (amino acids 857-860) substituted with alanines (protein, UniProt P53349 2-1493, looked up, variant D857A E858A V859A E860A)
Mitogen-activated protein …: AAAAGDRASSSGFPGAAAASPEAGGGGGGGGALQGSGAPAAGAAGLLREPGSAGRERADWRRRQLRKVRSVELDQLPEQPLFLAAASPPCPSTSPSPEPADAAAGASRFQPAAGPPPPGAASRCGSHSAELAAARDSGARSPAGAEPPSAAAPSGREMENKETLKGLHKMEDRPEERMIREKLKATCMPAWKHEWLERRNRRGPVVVKPIPIKGDGSEVNNLAAEPQGEGQAGSAAPAPKGRRSPSPGSSPSGRSVKPESPGVRRKRVSPVPFQSGRITPPRRAPSPDGFSPYSPEETSRRVNKVMRARLYLLQQIGPNSFLIGGDSPDNKYRVFIGPQNCSCGRGAFCIHLLFVMLRVFQLEPSDPMLWRKTLKNFEVESLFQKYHSRRSSRIKAPSRNTIQKFVSRMSNSHTLSSSSTSTSSSENSIKDEEEQMCPICLLGMLDEESLTVCEDGCRNKLHHHCMSIWAEECRRNREPLICPLCRSKWRSHDFYSHELSSPVESPASLRAVQQPSSPQQPVAGSQRRNQESSFNLTHFGTQQIPSAYKDLAEPWIQVFGMELVGCLFSRNWNVREMALRRLSHDVSGALLLANGESTGNSGGGSGGSLSAGAASGSSQPSISGDVVEACCSVLSIVCADPVYKVYVAALKTLRAMLVYTPCHSLAERIKLQRLLRPVVDTILVKCADANSRTSQLSISTVLELCKGQAGELAVGREILKAGSIGVGGVDYVLSCILGNQAESNNWQELLGRLCLIDRLLLEFPAEFYPHIVSTDVSQAEPVEIRYKKLLSLLTFALQSIDNSHSMVGKLSRRIYLSSARMVTAVPAVFSKLVTMLNASGSTHFTRMRRRLMAIAAAAAIAEVIQLGVEDTVDGHQDSLQAVAPTSCLENSSLEHTVHREKTGKGLSATRLSASSEDISDRLAGVSVGLPSSTTTEQPKPAVQTKGRPHSQCLNSSPLSHAQLMFPAPSAPCSSAPSVPDISKHRPQAFVPCKIPSASPQTQRKFSLQFQRNCSEHRDSDQLSPVFTQSRPPPSSNIHRPKPSRPVPGSTSKLGDATKSSMTLDLGSASRCDDSFGGGGNSGNAVIPSDETVFTPVEDKCRLDVNTELNSSIEDLLEASMPSSDTTVTFKSEVAVLSPEKAENDDTYKDDVNHNQKCKEKMEAEEEEALAIAMAMSASQDALPIVPQLQVENGEDIIIIQQDTPETLPGHTKAKQPYREDAEWLKGQQIGLGAFSSCYQAQDVGTGTLMAVKQVTYVRNTSSEQEEVVEALREEIRMMGHLNHPNIIRMLGATCEKSNYNLFIEWMAGGSVAHLLSKYGAFKESVVINYTEQLLRGLSYLHENQIIHRDVKGANLLIDSTGQRLRIADFGAAARLASKGTGAGEFQGQLLGTIAFMAPEVLRGQQYGRSCDVWSVGCAIIEMACAKPPWNAEKHSNHLALIFKIASATTAPSIPSHLSPGLRDVAVRCLELQPQDRPPSRELLKHPVFRTTW
B3: JNK2-APF: inhibitory mutant of JNK2 (protein, UniProt P45984 1-424, looked up, variant T183A Y185F)
Mitogen-activated protein …: MSDSKCDSQFYSVQVADSTFTVLKRYQQLKPIGSGAQGIVCAAFDTVLGINVAVKKLSRPFQNQTHAKRAYRELVLLKCVNHKNIISLLNVFTPQKTLEEFQDVYLVMELMDANLCQVIHMELDHERMSYLLYQMLCGIKHLHSAGIIHRDLKPSNIVVKSDCTLKILDFGLARTACTNFMMAPFVVTRYYRAPEVILGMGYKENVDIWSVGCIMGELVKGCVIFQGTDHIDQWNKVIEQLGTPSAEFMKKLQPTVRNYVENRPKYPGIKFEELFPDWIFPSESERDKIKTSQARDLLSKMLVIDPDKRISVDEALRHPYITVWYDPAEAEAPPPQIYDAQLEEREHAIEEWKELIYKEVMDWEERSKNGVVKDQPSDAAVSSNATPSQSSSINDISSMSTEQTLASDTDSSLDASTGPLEGCR

Legend:
Assay type in all cases: cell-based, Human
HEK293 cells = experiment: MEKK1 staining and TdT-mediated dUTP incorporation (DNA fragmentation) in transfected cells; details: for diminution of apoptotic cells induced by MEKK1 expression: co-expression with MEKK1
Description: Human embryonal kidney 293 cells (HEK293) stably expressing the EBNA-1 protein from Epstein-Barr virus (Invitrogen) were grown in Dulbecco's modified Eagle's medium (DMEM) supplemented with 100 U/ml penicillin/streptomycin and containing 10% bovine calf serum (BCS). The cells were transfected using lipofectamine (Gibco).
Cells were grown on glass coverslips and transfected using lipofectamine. Two days after transfection, the medium was removed and the cells were fixed in 2% paraformaldehyde, 3% sucrose in phosphate buffered saline (PBS) for 10 min at room temperature. Following three washes with PBS, the cells were permeabilized for 10 min with 2% Triton-X100 in PBS. After three PBS washes, the cells were blocked with filtered cultured medium for 15 min. The coverslips were then incubated 1 hour in TdT reaction mix (200 mM potassium cacodylate, 25 mM Tris.HCl, pH 6.6, 250 μg/ml BSA, 5 mM CoCl2, 0.25 U/μl TdT [Boehringer], 10 μM biotin-dUTP [Boehringer]) at 37° C. in a humidifed atmosphere. […] The coverslips were then washed 6× over a 30 min period with PBS and incubated 1 hour at room temperature with a 1/1000 dilution in filtered culture medium of a donkey anti-rabbit, Cy^3-conjugated, antibody (Jackson Immunological) mixed with 5 μg/ml streptavidin conjugated with FITC (Jackson Immunological). The coverslips were washed 6× with PBS and incubated overnight in PBS before being mounted in 20 mg/ml o-phenyldiamine-diHCl (Sigma) in 0.1 M Tris pH 8.5, 90% glycerol. Images were taken using a Leica DMRXA microscope and analyzed with the SlideBook v2.0 software (Intelligent Imaging Innovations, Denver). The subcellular localization of endogenous MEKK1 observed with the anti-COOH-terminal MEKK1 antibody was identical to that observed with a second antibody recognizing the NH2-terminal portion of the MEKK1 protein.

c-Jun kinase (JNK) = experiment: c-Jun kinase assay, transfected HEK293 cells; details: for effect on activation of the JNKs by MEKK1: co-expression with MEKK1
Description: (§1) Lysis buffer (70 mM β-glycerophosphate, 1 mM EGTA, 100 μM Na3VO4, 1 mM DTT, 2 mM MgCl2, 0.5% Triton-X100, 20 μg/ml aprotinin) was added to cells 15-24 hours after transfection. Cellular debris was removed by centrifugation at 8,000xg for 5 min. Protein concentration was normalized by Bradford assay using BSA as standard.
c-Jun kinase (JNK) activity was measured using a solid phase kinase assay in which glutathione S-transferase-c-Jun(1-79) (GST-Jun) bound to glutathione-Sepharose 4B beads was used to affinity-purify JNK from cell lysates as described (Gardner and Johnson, 1996; Hibi et al., 1993). Alternatively, JNKI or JNK2 were immunoprecipitated with isoform specific antibodies (Santa Cruz Biotechnology) and GST-Jun used as substrate in an in vitro kinase assay (Hibi et al., 1993). Quantitation of the phosphorylation of GST-Jun was performed with a Phosphorlmager.

MEKK1 = experiment: Immunoblot of cleavage fragments of transfected HA-tagged MEKK1 in HEK293 cells; details: for effect on proteolysis of MEKK1: co-expression with MEKK1
Text: The full length cDNA encoding mouse MEKK1 was modified by addition of the HA-tag sequence ([…]) (SEQ ID NO: 12) at its NH2-terminus and inserted into the expression plasmid pCEP4 (Invitrogen), resulting in plasmid MEKK1.cp4. The MEKK1 sequences DTVD (amino acids 871-874) and DEVE (amino acids 857-860) in MEKK1.cp4 were substituted with alanines using a PCR strategy. The resulting plasmids were named DTVD_A.cp4 and DEVE_A.cp4. The cDNAs for CrmA (Pickup et al., 1986), p35 (Cartier et al., 1994), JNK1-APF (Dérijard et al., 1994) and JNK2-APF (Kallunki et al., 1994) were subcloned in pCEP4 in which the hygromycin resistance gene had been removed, resulting in plasmids CrmA.cp_, p35.cp_, JNK1_APF.cp and JNK2_APF.cp_. Plasmid pCDNA—3.cp4 is the result of the ligation of pCEP4 and pCDNA-3.
200-400 μg cell lysate protein was subjected to SDS-9% PAGE and transferred to nitrocellulose membranes. Blots were performed exactly as described (Widmann et al., 1995). To detect HA-tagged proteins, the mouse monoclonal antibody 12CA5 (Babco) was used as the primary antibody, followed by a rabbit anti-mouse antibody (Cappel). HRP-conjugated protein A at a 1/5000 dilution (Zymed) and ^125I-protein A at a 1/500 dilution (Dupont NEN) were then used for enhanced chemiluminescence (ECL) detection and for quantification using the phosphorimager. To detect MEKK1, 3 different ploclonal antisera were used as primary antibodies, followed by ECL detection using HRP-protein A (see above). These sera were generated by injecting rabbits with GST proteins fused with different portions of the MEKK1 protein.

ERK2 = ERK2 immunoprecipitation kinase assay, transfected HEK293 cells; details: co-expression with MEKK1
Description: as §1
ERK2 was immunoprecipitated as described above for the JNK isoforms using the ERK2 (C-14) antibody (Santa Cruz Biotechnology). The beads were washed twice with 1 ml lysis buffer and twice with 1 ml lysis buffer without Triton-X100. […] The samples were washed thrice for 5 min each in 75 mM phosphoric acid and once for 2 min in acetone, air-dried, and their radioactivity determined in a β counter.

Molecule | diminution of apoptotic cells induced by MEKK1 expression (HEK293 cells) | diminution of apoptotic cells induced by MEKK1 expression (HEK293 cells; listed as JNKI-APF) | effect on activation of the JNKs by MEKK1 (c-Jun kinase (JNK)) | effect on proteolysis of MEKK1 (MEKK1) | effect on activation of ERK2 by MEKK1 (ERK2) | DNA fragmentation (HEK293 cells; expression in HEK293 cells) | JNK activation (c-Jun kinase (JNK); expression in HEK293 cells) | MEKK1 cleavage fragments generated (MEKK1; mutants transfected into HEK293 cells)
B1 | no effect | no protective effect | unaffected | little effect on the proteolysis of the MEKK1 protein | unaffected |  |  | 
B2 |  |  |  |  |  | induced DNA fragmentation | activated JNK to the same level as wild type MEKK1 | cleaved into fragments A, B, C and D
B3 |  |  | unaffected | little effect on the proteolysis of the MEKK1 protein | unaffected |  |  | 

— patent US20020055130A1, “Method and product for regulating apoptosis” (National Jewish Center for Immunology and Respiratory …, priority 1997, published 2002)
